According to patent US20240150785A1:

Key:
Assay in all cases: co-immunoprecipitation with bead-bound His-SUMO-BdRFS^Δ1-45 from crude leaf protein extract, LC-MS/MS
Details in all cases: scale: LFQ intensity
[1] = biological target: Abscisic acid-, Stress- and Ripening-induced 2 (BdASR2, Bd4g24650) (Brachypodium distachyon)
[2] = biological target: LPR2 (Low Phosphate Root 2; cupredoxin family) (Brachypodium distachyon)
[3] = biological target: NCED1 (Nine-cis Epoxycarotenoid Cleavage Dioxygenase 1) (Brachypodium distachyon)
[4] = biological target: PLAT1 (Polycystin, Lipoxygenase, Alpha-toxin, and Triacylglycerol lipase 1) (Brachypodium distachyon)
[5] = biological target: Phospholipase D α1 (BdPLD α1, Bd2g04480) (Brachypodium distachyon)

B1: His-SUMO-BdRFS^Δ1-45 (protein, not shown: small tags and cut ends; large carriers)
chain: RVRAAGSSHKPGGAVVRSTLVDNKKIASESFDGPRPARSEPASPISEPSSPSKVRFTAYYGGTGSDGGDDGVVEGVKKCAERDEDDFNGESETAVLRRTASMRMRSTIKAPLMAAPDWEEKEMALRKRGDLGWYRHLDMAVLDGSVVRLWTGEVTAAVQASPRERRRAGLELHLSV
[1]
  average LFQ intensity in eluate: 5.19e+07
[2]
  average LFQ intensity in eluate: 2.53e+07
[3]
  average LFQ intensity in eluate: 1.48e+07
[4]
  average LFQ intensity in eluate: 2.25e+07
[5]
  average LFQ intensity in eluate: 9.17e+06
